Assay results as given in the supplement of paper PMC10567573.

B1: ZNF449 (parent)
chain: FQEYDTDCEVFRQRFRQFQYREAA
B2: RHOBTB3 (parent)
chain: DSCCPAGIFQAMCLLICAEMYQVS
B3: RPS21 (parent)
chain: AEVSWEPGRREGCDICAGKAGCPI

Variants of: B1
Assay: protein stability index of a GFP-peptide fusion (GPS, HEK-293T) (PSI 1-6); higher = more stable
Settings: c terminus: a fixed tail appended
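Note: lentivirally expressed fusions sorted by FACS into six bins by GFP to DsRed ratio, PSI derived from sequencing read proportions per bin multiplied by bin number.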

Protein stability index, by site and new letter:
E9: D 2.16; C 1.76; K 2.21; F 1.96; G 2.29; I 2.47; L 1.67; N 2.35; P 2.46; A 2; Q 1.88; M 2.65; H 1.6
E3: R 2.54; P 1.56; M 1.85; S 2.15; F 2.35; K 2.03; W 2.6; Q 2.04; A 2.08; I 1.91; C 1.76; Y 1.68; G 1.41; H 2.11; N 1.68; V 2.31; L 1.99; D 2.24
T6: F 2.22; C 1.94; G 1.92; M 2.13; P 2.77; S 1.73; L 1.89; I 2.74; W 2.11; K 2.05; V 2.22; E 2.17; N 2.67; Q 2.65; D 2.62; A 2.58; H 2.1; Y 2.81
D7: R 2.3; G 2.02; K 2.02; A 1.53; E 2.26; C 1.1; S 2.1; I 2.25; M 1.59; V 1.34; H 2.12; L 1.93; N 1.83; Q 2.68; T 2.08; P 1.61; Y 1.34; F 2.27
D5: Y 2.55; E 2.45; S 2.28; I 1.42; K 2.64; A 2.25; Q 1.57; R 1.79; H 1.76; V 1.23; W 1.29; N 2.68; C 2.09; T 1.35; L 2.5; G 1.78; M 2.05; F 1.65
Q2: Y 2.5; S 3.32; W 2.67; L 2.33; K 2.96; D 3.19; V 1.68; G 2.59; A 2.9; T 2.69; H 1.78; R 2.09; N 2.93; F 2.48; M 2.61; C 2.26; P 2.72; E 2.73; I 1.97
Y4: E 3.79; Q 2.66; M 2.25; V 2.41; S 2.27; I 2.42; F 2.5; N 2.33; P 2.28; T 1.7; D 3.03; K 2.85; A 2.12; H 2.33; C 3.01; R 2.14
F1: A 2.85; T 3.22; S 2.85; P 3.42; W 2.82; I 2.81; H 3.24; Y 2.25; D 3.01; L 3.19; G 3.31; Q 2.79; E 3.25; N 3.23; R 2.43; C 2.6; M 3.03
C8: W 1.83; Q 2.21; Y 2; G 2.08; T 2.71; I 2.49; E 3.42; K 2.63; D 3.11; R 2.32; L 2.04; M 2.71; P 2.7; F 2.24; V 2.74; A 2.76; H 3.01; S 2.88; N 2.58

Variants of: B2
Assay: as above
Settings: c terminus: a fixed tail appended

Protein stability index, by site and new letter:
P5: I 2.61; K 2.16; H 3.17; N 3.01; A 1.65; L 2.87
L15: I 3.1; N 1.98; H 1.08; Y 1.98; W 1.09; F 2.97; M 2.19; S 3.51
C4: T 2.08; M 4; G 2.06; Q 2.56; F 2.94; P 2.84; H 4.64; V 2.88
I16: D 1.34; N 2.67; M 2.51; L 2.92; E 1.7; H 2.82; G 3.97
F9: A 2.97; P 1.51; D 1.51; E 4.01
S2: I 3.54; P 2.93; L 2.17; T 3.94; K 4.66; W 3.17; N 3.1
C3: R 2.33; H 1.02; S 3.1; A 3.18; T 1.39; P 2.93; K 3.1
S24: M 1.94; Y 3.56; C 2.39; A 3.22; T 3.71; L 3.43; G 2.36; N 3.14; P 4.65; F 2.53; K 3.25; Q 3.86; I 1.96
A11: C 2.69; Y 3.96; K 1.32; I 2.4
Q10: P 2.72; K 3.05; N 2.37; D 2.75
Q22: Y 2.33; W 2.54; R 3.1; V 3.65; A 3.15; S 2.99; P 2.12; G 3.65; I 2.2; D 2.17; T 3.27
V23: K 2.33; D 1.45; C 3.74; W 3.16; P 2.88; I 4.12
I8: E 1.48; P 1.68; M 1.95; R 2.55; V 3.73
D1: R 2.64; N 3.73; E 2.3; I 2.69; A 3.58; M 3.85; S 2.77; P 1.89; T 3.52
Y21: R 2.92; I 4.41; G 3.18; K 1.9; E 2.38
M12: Q 2.04; Y 2.9
G7: Y 2.8; I 3.28; E 1.72; N 2.19; F 2.49; H 2.75
M20: T 2.03; V 2.24
C17: M 5.55; T 2.97; H 4.02; D 1.91; N 3.58; R 4.51
C13: W 3.35; Q 4.88; I 4.59; H 2.4; A 3.91; Y 2.77; N 3.63; P 2.42
L14: A 3.65; E 3.59; I 2.24; T 2.78
A6: V 3.18; T 2.9; K 3.98; I 2.76; L 2; C 3.25; M 4.16; P 2.76
A18: H 3.29; C 2.87; L 2.35
E19: L 5.4; V 3.28; D 2.72; S 2.06; G 2.99; N 2.31; A 2.92; M 1.55; K 2.48

Variants of: B3
Assay: as above
Settings: c terminus: a fixed tail appended

Protein stability index: each site, then its substitutions
G12: C 3.29
A20: R 2.26; P 3.34
R10: C 3.8
P7: F 2.21; Y 2.9
G8: I 2.78
R9: Q 3.75; Y 3.1
V3: R 3.01; Y 3.54; C 3.78
A17: T 3.58; E 3.78
I24: V 3.19
I15: F 2.08
E2: S 2.94
C13: R 4.04
S4: F 2.45
E6: Y 1.76
C16: Q 4.37; T 2.97
A1: P 3.8; D 3.94
W5: L 3.12
C22: N 2.96
